Results: patent US10513545B2, “Fusion polypeptide in which anti-inflammatory polypeptide and ferritin monomer fragment are bound and pharmaceutical composition for preventing and treating inflammatory diseases, containing same as active ingredient” (KYUNGPOOK NATIONAL UNIVERSITY INDUSTRY-ACADEMIC COOPERATION …, priority 2015, dated 2019)

B1: TFMG: as TFG with an MMP-2 cleavable linker (GPLGLAG) between ferritin fragment C-terminus and PC-Gla (apparently SEQ ID NO: 15) (protein)
chain: MGGTTFLLRNASGHMSSQIRQNYSTDVEAAVNSLVNLYLQASYTYLSLGFYFDRDDVALEGVSHFFRELAEEKREGYERLLKMQNQRGGRIFLQDIKKPAEDEWGKTPDAMKAAMALEKKLNQALLDLHALGSARTDPHLCDFLETHFLDEEVKLIKKMGDHLTNLHRLGGGSEFVDGGGSGTSGPLGLAGANSFLEELRHSSLERECIEEICDFEEAKEIFQNVDDTLAFWSKHVLEHHHHHH
modifications: Fusion polypeptide (2)
B2: TFG: fusion polypeptide: TRAP at N-terminus and PC-Gla at C-terminus of short ferritin monomer fragment, forms nanocage (apparently SEQ ID NO: 14) (protein)
chain: MGGTTFLLRNASGHMSSQIRQNYSTDVEAAVNSLVNLYLQASYTYLSLGFYFDRDDVALEGVSHFFRELAEEKREGYERLLKMQNQRGGRIFLQDIKKPAEDEWGKTPDAMKAAMALEKKLNQALLDLHALGSARTDPHLCDFLETHFLDEEVKLIKKMGDHLTNLHRLGGGSEFVDGGGSGTSANSFLEELRHSSLERECIEEICDFEEAKEIFQNVDDTLAFWSKHVLEHHHHHH
modifications: Fusion polypeptide (1)

Assays:
[1] = test system: CLP-induced sepsis; test: H&E staining and histopathological examination of lung in CLP-induced sepsis; format: in vivo, mouse; conditions: for interstitial edema, infiltration of inflammatory cells and damage of pulmonary architecture: 200 nM intravenously 6 h after CLP, lungs 96 h after CLP, FIG. 15; for histopathologic score of pulmonary injury: in comparison with co-administration of PC-Gla and TRAP, FIG. 16
Method: (§1) To induce inflammation, male mice were anesthetized with 2% isoflurane (JW Pharmaceutical, Republic of Korea) in oxygen delivered via a small rodent gas anesthesia machine (RC2, Vetequip, Pleasanton, Calif.), first in a breathing chamber and then via a facemask. They were allowed to breathe spontaneously during this procedure. The CLP-induced inflammation model was prepared as previously described. In brief, a 2-cm midline incision was made to expose the cecum and adjoining intestine. The cecum was then tightly ligated with a 3.0-silk suture at 5.0 mm from the cecal tip and punctured once using a 22-gauge needle for the induction of high grade inflammation. It was then squeezed gently to extrude a small amount of feces from the perforation site and returned to the peritoneal cavity. The laparotomy site was then sutured with 4.0-silk. In sham control animals, the cecum was exposed but not ligated or punctured and then returned to the abdominal cavity. This protocol was approved by the Animal Care Committee at Kyungpook National University prior to the conduct of the study (IRP No, KNU 2012-13).
Male C57BL/6 mice underwent CLP and were administered PC-Gla with TRAP, TFG, or TFMG (200 nM) intravenously at 6 h after CLP (n=5). Mice were euthanized 96 h after CLP. To analyze the phenotypic change of the lungs in mice, lung samples were removed from each mouse, washed tree times in PBS (pH 7.4) to remove remaining blood, fixed in 4% formaldehyde solution (Junsei, Tokyo, Japan) in PBS, pH 7.4 for 20 h at 4° C. After fixation, the samples were dehydrated through ethanol series, embedded in paraffin, sectioned into 4-μm sections, and placed on a slide. The slides were de-paraffinized in a 60° C. oven, rehydrated, and stained with hematoxylin (Sigma). To remove over-staining, the slides were quick dipped three times in 0.3% acid alcohol, and counterstained with eosin (Sigma). They are then washed in ethanol series and xylene, and then coverslipped. Light microscopic analysis of lung specimens was performed by blinded observation to evaluate pulmonary architecture, tissue edema, and infiltration of the inflammatory cells. The results were classified into four grades where Grade 1 represented normal histopathology; Grade 2 represented minimal neutrophil leukocyte infiltration; Grade 3 represented moderate neutrophil leukocyte infiltration, perivascular edema formation, and partial destruction of pulmonary architecture; and Grade 4 included dense neutrophil leukocyte infiltration, abscess formation, and complete destruction of pulmonary architecture.

[2] = test system: HUVECs; test: HUVEC cell-binding assay with fluorescence-labeled molecules (in vitro); format: cell-based, human; conditions: for degree of binding to HUVECs: FIG. 10, compared with PC-Gla; for in vitro binding to endothelial cells compared with PC-Gla: HUVEC, FIG. 12A
Method: PC-Gla, TFG, and TFMG were labeled with FNG-456 NHS ester for in vitro assays or FNI-675 NHS ester for in vivo assays at a molar ratio of 1:3. Briefly, each molecule (10 μM) was dissolved in PBS (1.5 mL), and FNG-456 NHS ester (30 μM) or FNI-675 NHS ester (30 μM) was dissolved in DMSO (0.2 mL). Each molecule and fluorescent dye was reacted at room temperature for 3 h. The reaction product was passed through a 0.2-μm filtering unit, and the unreacted dye was separated on a PD midiTrap™ G-25 (GE Healthcare, UK) that had been pre-equilibrated in PBS with 2 mM sodium azide. This process yielded more than 2.17 μM of each nanoparticle with more than 1.5 ratio of dye per protein.
A direct cell-binding assay was performed on HUVECs and in vivo using fluorescence labeled-PC-Gla, TFG, and TFMG. The assay was performed with PC-Gla, TFG, or TFMG treated on HUVECs, intravenously injected mice, and isolated mouse endothelial cells. The fluorescence value of the HUVECs or endothelial cells were measured with tightly bound PC-Gla, TFG, and TFMG, respectively. The concentrations of PC-Gla, TFG, and TFMG were measured by using the nanoparticle ratio of fluorescent dye per protein.

[3] = test system: IL-6, IL-10, TNF-α; test: blood inflammatory cytokines (ELISA) in CLP-induced sepsis; format: in vivo, mouse; conditions: for level of IL-6 / level of IL-10: FIG. 18A; for level of TNF-α: FIG. 18B
Method: as §1
Fresh serum was used for assaying aspartate transaminase (AST), alanine transaminase (ALT), blood urea nitrogen (BUN), creatinine, and LDH using biochemical kits (Mybiosource). To determine the concentrations of IL-6, IL-10, and TNF-α, commercially available ELISA kits were used according to the manufacturer's protocol (R&D Systems). Values were measured using an ELISA plate reader (Tecan, Austria GmbH, Austria).

[4] = test system: LPS-stimulated HUVEC cells; test: in vitro permeability assay (Evans blue-bound albumin flux); format: cell-based, human; conditions: HUVECs, LPS 100 ng/mL 4 h, up to 100 nM, FIG. 19
Method: For spectrophotometric quantification of endothelial cell permeabilities in response to increasing concentrations of each molecule, the flux of Evans blue-bound albumin across functional cell monolayers was measured using a modified 2-compartment chamber model, as previously described. HUVECs were plated (5×10^4/well) in 12-mm diameter Transwells with a pore size of 3 μm for 3 days. Confluent monolayers of HUVECs were exposed to LPS (100 ng/mL) for 4 h before being subjected to PC-Gla with TRAP, TFG, or TFMG (up to 100 nM). Transwell inserts were then washed with TBS (pH 7.4), followed by the addition of Evans blue (0.5 mL; 0.67 mg/mL) diluted in a growth medium containing 4% BSA. Fresh growth medium was then added to the lower chamber, and the medium in the upper chamber was replaced with Evans blue/BSA. Ten minutes later, the optical density of the sample in the lower chamber was measured at 650 nm.

[5] = test system: LPS-stimulated HUVEC cells; test: cell-cell adhesion assay (leukocytes to HUVEC monolayers); format: cell-based, human; conditions: HUVECs, LPS 100 ng/mL 4 h, FIG. 21B
Method: Adherence of monocytes to endothelial cells was evaluated by fluorescent labeling of monocytes, as previously described. Briefly, monocytes were labeled with 5 μM Vybrant DiD for 20 min at 37° C. in phenol red-free RPMI containing 5% FBS. After washing, the cells (1.5×10^6 cells/mL, 200 μL/well) were resuspended in adhesion medium (RPMI containing 2% fetal bovine serum and 20 mM HEPES). The cells were then added to confluent monolayers of HUVECs in 96-well plates. Prior to the addition of cells, HUVECs were treated PC-Gla with TRAP, TFG, or TFMG for 6 h, followed by treatment with LPS (100 ng/mL, 4 h). Quantification of cell adhesion was determined as previously described.

| Molecule | interstitial edema, infiltration of inflammatory cells and damage of pulmonary architecture [1] | histopathologic score of pulmonary injury [1] | degree of binding to HUVECs [2] | in vitro binding to endothelial cells compared with PC-Gla [2] | level of IL-6 [3] | level of IL-10 [3] | level of TNF-α [3] | in vitro endothelial cell permeability [4] | adhesion of leukocytes [5] |
| --- | --- | --- | --- | --- | --- | --- | --- | --- | --- |
| B1 | significantly alleviated | significantly superior effect | strong binding affinities which are equivalent to that of PC-Gla | bound more strongly to, and stayed longer on, endothelial cells than PC-Gla did | mitigated | mitigated | mitigated | alleviated | inhibited |
| B2 | significantly alleviated | significantly superior effect | strong binding affinities which are equivalent to that of PC-Gla | bound more strongly to, and stayed longer on, endothelial cells than PC-Gla did | mitigated | mitigated | mitigated | alleviated | inhibited |
